For this assay, the target named is IL-1β mutant with pBpa at position 63 (Homo sapiens). In words: cross-linking.

This passage reports UV output (CFU) and UV/non-UV output ratio results from article PMC7112767.

“monoclonal phage displaying the scFv of canakinumab”: the UV output (CFU) is 6400 CFU and the UV/non-UV output ratio was found to be 3.8.
